Several values for one entry are separate records, joined by “and”; a condition that tells them apart may be missing. Identical values can stand only once.
Assays:
[1] = biological target: T1, human MHC class II DR protein (DRA*0101/DRB1*0401) purified from Priess cells (human, UniProt P01903 26-254; P01911 30-266, limits assumed); assay: SPR (Biacore), DR protein on the chip
T1 construct: mature; Native heterodimer isolated from cell lysate; Coated on ELISA plates or coupled to a BIAcore CM5 chip; also called HLA-DR protein; MHC-class II DRA*0101/DRB1*0401
T1 MHC II alpha: not shown
T1 MHC II beta: not shown

[2] = biological target: HLA-DR on HLA-DR-positive cell lines (GRANTA-519, MHH-CALL4, Priess or LG2; allotype not stated) (human); assay: cell-based or functional assay
[3] = biological target: HLA-DR on the human B lymphoblastoid cell line LG-2 (human); assay: flow cytometry on LG-2 cells, 35 ug Fab first; competitor 1-1C4 (2 ug)

- Kd [1]: 346 nM
- decrease of binding of the mouse antibody [3]: 50%
B1: MS-GPC-8-Fab (Fab, V domains shown)
VH: QVQLKESGPALVKPTQTLTLTCTFSGFSLSTSGVGVGWIRQPPGKALEWLALIDWDDDKYYSTSLKTRLTISKDTSKNQVVLTMTNMDPVDTATYYCARSPRYRGAFDYWGQGTLVTVSS
VL: DIVLTQPPSVSGAPGQRVTISCSGSSSNIGSNYVSWYQQLPGTAPKLLIYDNNQRPSGVPDRFSGSKSGTSASLAITGLQSEDEADYYCQSYDMPQAVFGGGTKLTVLG
- EC50 of cell killing (Priess or LG2 cells), as concentration of the bivalent cross-linked (Fab) dimer [2]: < 60 nM
- EC50 of cell killing (Priess or LG2 cells), as concentration of the monovalent fragment, cross-linked with anti-FLAG M2 [2]: < 120 nM
- EC50 of cell killing (concentration of the bivalent cross-linked Fab dimer; cell line not named here) [2]: 20 nM and 40 nM
- maximal killing of MHH-CALL 4 cells [2]: 65%
